The target in the data set is MERS-CoV nsp13 helicase (WT) (MERS-CoV, UniProt K9N7C7 5311-5908). Put plainly: EMSA. (Mobility shift assays separate free from complexed probe on a gel.)
Sequence of MERS-CoV nsp13 helicase (WT) (K9N7C7 5311-5908): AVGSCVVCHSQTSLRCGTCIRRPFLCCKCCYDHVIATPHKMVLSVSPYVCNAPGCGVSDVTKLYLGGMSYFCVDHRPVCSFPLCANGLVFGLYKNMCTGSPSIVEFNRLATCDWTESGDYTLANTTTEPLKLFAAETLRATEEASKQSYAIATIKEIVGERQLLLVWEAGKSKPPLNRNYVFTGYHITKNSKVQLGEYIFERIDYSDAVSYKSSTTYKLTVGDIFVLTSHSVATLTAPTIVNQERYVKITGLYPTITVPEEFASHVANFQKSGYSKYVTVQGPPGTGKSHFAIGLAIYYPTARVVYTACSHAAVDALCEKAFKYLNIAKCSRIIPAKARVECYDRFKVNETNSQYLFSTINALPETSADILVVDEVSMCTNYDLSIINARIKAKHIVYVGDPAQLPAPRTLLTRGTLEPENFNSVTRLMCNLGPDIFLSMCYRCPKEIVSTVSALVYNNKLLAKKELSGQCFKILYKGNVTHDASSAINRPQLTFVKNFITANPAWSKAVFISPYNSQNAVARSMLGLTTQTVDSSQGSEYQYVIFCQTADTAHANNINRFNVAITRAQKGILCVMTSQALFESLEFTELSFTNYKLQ

B1: EMSA partial duplex, 18 bp with 5' (dT)21 overhang (dsDNA)
DNA 1: TTTTTTTTTTTTTTTTTTTTTCTGATGTTAGCAGCTTCG
DNA 2: CGAAGCTGCTAACATCAG
As for B1, the binding result is listed as “binds”.

The values above are taken from paper PMC11863148.
